Data published in patent US20080293081A1, “Fluorescence Polarization Assays for Acetyltransferase/Deacetylase Activity” (Sirtris Pharmaceuticals, Inc., priority 2005, published 2008).
No end group written: not given here.

Legend:
SIRT1 = target: T1, SIRT1 (Homo sapiens, UniProt Q96EB6); details: Km of NAD with the named peptide substrate; Sirt1, FRET, Marcotte et al.; cited from earlier work
T1 sequence (Q96EB6 1-747): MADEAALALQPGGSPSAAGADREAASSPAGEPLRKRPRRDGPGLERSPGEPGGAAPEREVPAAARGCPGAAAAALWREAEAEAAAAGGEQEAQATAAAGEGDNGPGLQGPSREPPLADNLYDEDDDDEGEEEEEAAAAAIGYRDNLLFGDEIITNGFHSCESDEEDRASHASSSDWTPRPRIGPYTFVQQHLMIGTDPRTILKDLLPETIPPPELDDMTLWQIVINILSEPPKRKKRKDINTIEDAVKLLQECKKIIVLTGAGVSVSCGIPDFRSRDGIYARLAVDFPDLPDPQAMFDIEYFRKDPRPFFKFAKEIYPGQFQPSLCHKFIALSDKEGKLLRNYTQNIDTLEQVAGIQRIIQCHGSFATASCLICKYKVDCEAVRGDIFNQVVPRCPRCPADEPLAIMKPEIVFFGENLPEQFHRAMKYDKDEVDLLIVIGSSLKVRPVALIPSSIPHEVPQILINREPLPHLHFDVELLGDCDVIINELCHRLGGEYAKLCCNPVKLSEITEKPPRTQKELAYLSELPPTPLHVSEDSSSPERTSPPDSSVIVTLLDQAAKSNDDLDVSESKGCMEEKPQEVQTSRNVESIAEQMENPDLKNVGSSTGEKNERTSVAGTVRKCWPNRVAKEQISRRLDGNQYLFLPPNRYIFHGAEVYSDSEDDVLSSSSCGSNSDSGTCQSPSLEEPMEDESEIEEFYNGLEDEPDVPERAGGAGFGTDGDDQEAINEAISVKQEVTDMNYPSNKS

Sirt2 = target: T2, Sirt2 (Homo sapiens, UniProt Q8IXJ6); details: Km of NAD with the named peptide substrate; Sirt2, FRET, Marcotte et al.; cited from earlier work
T2 sequence (Q8IXJ6 1-389): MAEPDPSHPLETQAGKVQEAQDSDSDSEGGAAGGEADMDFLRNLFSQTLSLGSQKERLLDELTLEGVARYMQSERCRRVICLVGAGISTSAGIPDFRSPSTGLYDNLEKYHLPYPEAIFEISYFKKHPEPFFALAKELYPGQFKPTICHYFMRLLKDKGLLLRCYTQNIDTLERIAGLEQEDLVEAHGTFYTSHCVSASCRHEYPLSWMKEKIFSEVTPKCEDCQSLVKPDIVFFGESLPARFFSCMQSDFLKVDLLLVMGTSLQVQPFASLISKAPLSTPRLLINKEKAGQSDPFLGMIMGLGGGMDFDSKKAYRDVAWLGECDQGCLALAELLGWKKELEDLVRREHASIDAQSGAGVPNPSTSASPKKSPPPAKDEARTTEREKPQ

[1] = target: T3, Biotin-Nle-PSD-K(Ac)-TIGG-K(MR121)-NH2
T3 chain: XPSDKTIGGK

[2] = target: T4, Ac-EE-K(biotin)-GQSTSSHS-K(Ac)-Nle-STEG-K(5-TMR)-EE-NH2
T4 chain: GQSTSSHSKXSTEGKEE

For “p53 20 mer (aa 372-387) *FL: p53 20 mer (aa 372-387) peptide substrate with fluorescent label, FRET assay of Marcotte et al. (KKGQSTSRHKKLMFKT; also: fluorescent label, position not given here; UniProt P04637 372-387, looked up, fragment)”, the Km (SIRT1) is listed as 90 µM and the Km (Sirt2) is listed as 42 µM.

B1: Human SIRT2 enzyme (protein)
chain: MAEPDPSHPLETQAGKVQEAQDSDSDSEGGAAGGEADMDFLRNLFSQTLSLGSQKERLLDELTLEGVARYMQSERCRRVICLVGAGISTSAGIPDFRSPSTGLYDNLEKYHLPYPEAIFEISYFKKHPEPFFALAKELYPGQFKPTICHYFMRLLKDKGLLLRCYTQNIDTLERIAGLEQEDLVEAHGTFYTSHCVSASCRHEYPLSWMKEKIFSEVTPKCEDCQSLVKPDIVFFGESLPARFFSCMQSDFLKVDLLLVMGTSLQVQPFASLISKAPLSTPRLLINKEKAGQSDPFLGMIMGLGGGMDFDSKKAYRDVAWLGECDQGCLALAELLGWKKELEDLVRREHASIDAQSGAGVPNPSTSASPKKSPPPAKDEARTTEREKPQ
For B1, the Peptide Km (uM), fluorescent polarization deacetylase assay [1] was 50 µM.

B2: SIRT1 (protein)
chain: MADEAALALQPGGSPSAAGADREAASSPAGEPLRKRPRRDGPGLERSPGEPGGAAPEREVPAAARGCPGAAAAALWREAEAEAAAAGGEQEAQATAAAGEGDNGPGLQGPSREPPLADNLYDEDDDDEGEEEEEAAAAAIGYRDNLLFGDEIITNGFHSCESDEEDRASHASSSDWTPRPRIGPYTFVQQHLMIGTDPRTILKDLLPETIPPPELDDMTLWQIVINILSEPPKRKKRKDINTIEDAVKLLQECKKIIVLTGAGVSVSCGIPDFRSRDGIYARLAVDFPDLPDPQAMFDIEYFRKDPRPFFKFAKEIYPGQFQPSLCHKFIALSDKEGKLLRNYTQNIDTLEQVAGIQRIIQCHGSFATASCLICKYKVDCEAVRGDIFNQVVPRCPRCPADEPLAIMKPEIVFFGENLPEQFHRAMKYDKDEVDLLIVIGSSLKVRPVALIPSSIPHEVPQILINREPLPHLHFDVELLGDCDVIINELCHRLGGEYAKLCCNPVKLSEITEKPPRTQKELAYLSELPPTPLHVSEDSSSPERTSPPDSSVIVTLLDQAAKSNDDLDVSESKGCMEEKPQEVQTSRNVESIAEQMENPDLKNVGSSTGEKNERTSVAGTVRKCWPNRVAKEQISRRLDGNQYLFLPPNRYIFHGAEVYSDSEDDVLSSSSCGSNSDSGTCQSPSLEEPMEDESEIEEFYNGLEDEPDVPERAGGAGFGTDGDDQEAINEAISVKQEVTDMNYPSNKS
B2 showed a Peptide Km (uM), fluorescent polarization deacetylase assay [2] of 7.8 µM.
